Results reported in patent US20250163119A1, “COMPOUNDS FOR THE TREATMENT OF DIABETES OR OBESITY” (Eli Lilly and Company, priority 2023, published 2025).
*1 amine or outer side, *2 acyl side, *3 side chain or, on linkers, in order; H or OH if unused. Where a SMILES comes first, the peptide text is derived from it. Where no end group is shown, it is not given here. Side-chain parts run from the residue outwards. [ ]: non-standard residue; d: D form. The star is where a group is joined. C20 diacid = O=C(O)CCCCCCCCCCCCCCCCCCC(=O)*; γGlu = O=C(O)[C@H](CCC(=O)[*:2])N[*:1]; εLys = N[C@@H](CCCCN[*:1])C(=O)[*:2]; αMeL = CC(C)C[C@](C)(N)C(=O)O; AEEA = NCCOCCOCC(=O)O; Aib = CC(C)(N)C(=O)O

T1: human CRHR2 (Homo sapiens, UniProt Q13324)
T1 construct: expressed in transfected cells
T1 sequence (Q13324 1-438 isoform Q13324-2): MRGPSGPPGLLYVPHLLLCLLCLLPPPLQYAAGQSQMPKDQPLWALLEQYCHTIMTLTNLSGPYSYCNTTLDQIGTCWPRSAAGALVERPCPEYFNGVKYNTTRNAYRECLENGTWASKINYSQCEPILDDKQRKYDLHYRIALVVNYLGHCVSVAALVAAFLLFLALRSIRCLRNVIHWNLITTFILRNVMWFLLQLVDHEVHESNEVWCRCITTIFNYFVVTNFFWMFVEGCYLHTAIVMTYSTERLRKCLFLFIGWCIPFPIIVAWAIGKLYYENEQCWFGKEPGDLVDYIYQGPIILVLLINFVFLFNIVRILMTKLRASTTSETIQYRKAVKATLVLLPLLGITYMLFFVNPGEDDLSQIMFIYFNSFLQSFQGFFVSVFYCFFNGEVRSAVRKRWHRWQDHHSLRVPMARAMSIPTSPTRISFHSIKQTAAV

T2: human corticotropin-releasing hormone receptor 1 (CRHR1) (human, UniProt P34998 24-415)
T2 sequence (looked up): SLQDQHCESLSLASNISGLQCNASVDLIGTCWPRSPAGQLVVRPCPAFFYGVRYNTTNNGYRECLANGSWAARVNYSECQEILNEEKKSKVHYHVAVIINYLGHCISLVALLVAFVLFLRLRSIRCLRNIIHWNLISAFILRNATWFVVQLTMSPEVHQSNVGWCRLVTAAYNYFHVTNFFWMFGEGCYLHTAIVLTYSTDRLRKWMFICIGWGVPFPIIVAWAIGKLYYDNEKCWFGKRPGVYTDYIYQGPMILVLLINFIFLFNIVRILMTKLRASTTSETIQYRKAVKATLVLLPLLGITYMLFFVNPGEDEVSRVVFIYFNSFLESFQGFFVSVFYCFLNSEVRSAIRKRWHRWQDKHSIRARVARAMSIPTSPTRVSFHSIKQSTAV

B1: polypeptide comprising SEQ ID NO:40 (peptide)
peptide: Ac-IVTS[αMeL]D[dV]PTG[αMeL]LQIKLEQERAEKARQQAKENTEILAQV-NH2
modifications: not fully specified (residue 29)
B2: polypeptide comprising SEQ ID NO:45 (peptide)
peptide: [γGlu]GPSIVTS[αMeL]D[dV]PI[Aib][αMeL]LQIKLEQERAEKARQQAK([AEEA-AEEA-γGlu-C20 diacid])ENTEILAQV-NH2
B3: polypeptide comprising SEQ ID NO:41 (peptide)
peptide: Ac-IVTS[αMeL]D[dV]PT[Aib][αMeL]LQIKLEQERAEKARQQAK([AEEA-AEEA-γGlu-C20 diacid])ENTEILAQV-NH2
SMILES: CC[C@H](C)[C@H](NC(C)=O)C(=O)N[C@H](C(=O)N[C@H](C(=O)N[C@@H](CO)C(=O)N[C@@](C)(CC(C)C)C(=O)N[C@@H](CC(=O)O)C(=O)N[C@@H](C(=O)N1CCC[C@H]1C(=O)N[C@H](C(=O)NC(C)(C)C(=O)N[C@@](C)(CC(C)C)C(=O)N[C@@H](CC(C)C)C(=O)N[C@@H](CCC(N)=O)C(=O)N[C@H](C(=O)N[C@@H](CCCCN)C(=O)N[C@@H](CC(C)C)C(=O)N[C@@H](CCC(=O)O)C(=O)N[C@@H](CCC(N)=O)C(=O)N[C@@H](CCC(=O)O)C(=O)N[C@@H](CCCNC(=N)N)C(=O)N[C@@H](C)C(=O)N[C@@H](CCC(=O)O)C(=O)N[C@@H](CCCCN)C(=O)N[C@@H](C)C(=O)N[C@@H](CCCNC(=N)N)C(=O)N[C@@H](CCC(N)=O)C(=O)N[C@@H](CCC(N)=O)C(=O)N[C@@H](C)C(=O)N[C@@H](CCCCNC(=O)COCCOCCNC(=O)COCCOCCNC(=O)CC[C@H](NC(=O)CCCCCCCCCCCCCCCCCCC(=O)O)C(=O)O)C(=O)N[C@@H](CCC(=O)O)C(=O)N[C@@H](CC(N)=O)C(=O)N[C@H](C(=O)N[C@@H](CCC(=O)O)C(=O)N[C@H](C(=O)N[C@@H](CC(C)C)C(=O)N[C@@H](C)C(=O)N[C@@H](CCC(N)=O)C(=O)N[C@H](C(N)=O)C(C)C)[C@@H](C)CC)[C@@H](C)O)[C@@H](C)CC)[C@@H](C)O)C(C)C)[C@@H](C)O)C(C)C
B4: polypeptide comprising SEQ ID NO:42 (peptide)
peptide: Ac-IVTS[αMeL]D[dV]PI[Aib][αMeL]LQIKLEQERAEKARQQAK([AEEA-AEEA-γGlu-C20 diacid])ENTEILAQV-NH2
SMILES: CC[C@H](C)[C@H](NC(C)=O)C(=O)N[C@H](C(=O)N[C@H](C(=O)N[C@@H](CO)C(=O)N[C@@](C)(CC(C)C)C(=O)N[C@@H](CC(=O)O)C(=O)N[C@@H](C(=O)N1CCC[C@H]1C(=O)N[C@H](C(=O)NC(C)(C)C(=O)N[C@@](C)(CC(C)C)C(=O)N[C@@H](CC(C)C)C(=O)N[C@@H](CCC(N)=O)C(=O)N[C@H](C(=O)N[C@@H](CCCCN)C(=O)N[C@@H](CC(C)C)C(=O)N[C@@H](CCC(=O)O)C(=O)N[C@@H](CCC(N)=O)C(=O)N[C@@H](CCC(=O)O)C(=O)N[C@@H](CCCNC(=N)N)C(=O)N[C@@H](C)C(=O)N[C@@H](CCC(=O)O)C(=O)N[C@@H](CCCCN)C(=O)N[C@@H](C)C(=O)N[C@@H](CCCNC(=N)N)C(=O)N[C@@H](CCC(N)=O)C(=O)N[C@@H](CCC(N)=O)C(=O)N[C@@H](C)C(=O)N[C@@H](CCCCNC(=O)COCCOCCNC(=O)COCCOCCNC(=O)CC[C@H](NC(=O)CCCCCCCCCCCCCCCCCCC(=O)O)C(=O)O)C(=O)N[C@@H](CCC(=O)O)C(=O)N[C@@H](CC(N)=O)C(=O)N[C@H](C(=O)N[C@@H](CCC(=O)O)C(=O)N[C@H](C(=O)N[C@@H](CC(C)C)C(=O)N[C@@H](C)C(=O)N[C@@H](CCC(N)=O)C(=O)N[C@H](C(N)=O)C(C)C)[C@@H](C)CC)[C@@H](C)O)[C@@H](C)CC)[C@@H](C)CC)C(C)C)[C@@H](C)O)C(C)C
B5: polypeptide comprising SEQ ID NO:44 (peptide)
peptide: Ac-IVTS[αMeL]D[dV]PTG[αMeL]LQIKLEQERAEKARQQAKENTEILAQV-NH2
modifications: not fully specified (residue 29)
B6: polypeptide comprising SEQ ID NO:43 (peptide)
peptide: Ac-IVTS[αMeL]D[dV]PTG[αMeL]LQIKLEQERAEKARQQAKENTEILAQV-NH2
modifications: not fully specified (residue 29)

Molecular target: T1, human CRHR2
Experiment: Human CRHR2 cAMP assay (HTRF) in HEK293 cells stably expressing human CRHR2
Format: cell-based
Details: HEK293 cells overexpressing human CRHR2; relative EC50, maximum 10 nM human UCN2; mean ± SE; read-out: hCRHR2 cAMP EC50 (pM, ± SE)
Procedure: The corticotropin-releasing hormone (CRH) receptor 1 and 2 (CRHR1 and CRHR2) are GPCRs that were functionally coupled to Gs proteins. Stimulation of these receptors results in an increased production of intracellular cAMP, which can be detected using standard in vitro technologies. In vitro activity of peptides was measured by the amount of cAMP formed in human CRHR1 and CRHR2 overexpressed cells.
Human CRHR1 and CRHR2 receptors were stably expressed in human embryonic kidney cells (HEK293) under control of a pcDNA expression vector. The HEK293 cell line was cultured in DMEM 1× (Gibco, 93-0152DK) supplemented with 10% FBS, 1 mM sodium pyruvate, 1×MEM NEAA, 1× GlutaMAX and 10 mM HEPES. The plasmids of human CRHR1-pQCXIP (T7364) and human CRHR2b-R2683puro (T16761) DNA were transfected into HEK293 cells using Lipo fectAMINE 3000 Transfection reagent (Invitrogen, L3000001). After 20 days under selection, the mRNA levels from different clones were measured to confirm the expression of human CRHR1 and CRHR2 genes. To determine the function of over-expressed CRHR cells, the intracellular cAMP levels in response to human UCN1 and UCN2 were measured and compared to the expression of CRHR1 and CRHR2 mRNA in each clone.
Human CRHR1 cells were cultured in DMEM 1× (Gibco, 93-0152DK) supplemented with 10% FBS, 1 mM sodium pyruvate, 1×MEM NEAA, 1×GlutaMAX, 10 mM HEPES, and 800 μg/ml G418. Human CRHR2 cells were cultured at the same media (DMEM 1×, 10% FBS, 1 mM sodium pyruvate, 1×MEM NEAA, 1×GlutaMAX, 10 mM HEPES) in the presence of 0.5 ug/mL puromycin. Cultured cells were grown to 90% confluency and harvested. The cells were frozen at 10×10e6/ml in a mixture of […] fetal bovine serum plus 7% DMSO and stored in liquid nitrogen until use.
On the day of the assay, the frozen cells were thawed and diluted in assay buffer (Phenol Red free MEM (Corning, 17-305-CV, lot #32121010), 0.1% Casein (Sigma C4765, lot #SLCG2120), 5 mM HEPES pH 7.4 containing 0.25 mM IBMX). 10 ul of human CRHR1 cells (25,000 cells) or 10 μL of human CRHR2 cells (5,000 cells) were dispensed into each well of white poly-D-lysine coated 384-well plates (Corning cat #354661). Test compounds diluted in DMSO were added (200 nL/well) in a 1:3 dilution series using ECHO acoustic liquid handler (Beckman). The mixture of cells and test compounds were incubated at 37° C. for 1 hour for the hCRHR1 plate, while the CRHR2 plates were incubated at room temperature for 30 min.
The amount of intracellular cAMP was quantitated using HTRF technology (Homogeneous Time Resolved Fluorescence; Cisbio) as per vendor instructions. Briefly, 10 uL CAMP-d2 conjugate and 10 uL anti-CAMP-cryptate conjugate in lysis buffer were incubated with the treated cells at room temperature for 60 min. The HTRF signal was immediately detected using an Envision plate reader (Perkin-Elmer) to calculate the ratio of fluorescence at 665 to 620 nm.
Raw fluorescence data for concentration curves of the peptides in Table 2 and Table 3 were converted to cAMP amount (pmol/well) using a cAMP standard curve generated for each experiment.

EC50 [pM]	Molecule
5 ± 0.2	CC[C@H](C)[C@H](NC(C)=O)C(=O)N[C@H](C(=O)N[C@H](C(=O)N[C@@H](CO)C(=O)N[C@@](C)(CC(C)C)C(=O)N[C@@H](CC(=O)O)C(=O)N[C@@H](C(=O)N1CCC[C@H]1C(=O)N[C@H](C(=O)NCC(=O)N[C@@](C)(CC(C)C)C(=O)N[C@@H](CC(C)C)C(=O)N[C@@H](CCC(N)=O)C(=O)N[C@H](C(=O)N[C@@H](CCCCN)C(=O)N[C@@H](CC(C)C)C(=O)N[C@@H](CCC(=O)O)C(=O)N[C@@H](CCC(N)=O)C(=O)N[C@@H](CCC(=O)O)C(=O)N[C@@H](CCCNC(=N)N)C(=O)N[C@@H](C)C(=O)N[C@@H](CCC(=O)O)C(=O)N[C@@H](CCCCN)C(=O)N[C@@H](C)C(=O)N[C@@H](CCCNC(=N)N)C(=O)N[C@@H](CCC(N)=O)C(=O)N[C@@H](CCC(N)=O)C(=O)N[C@@H](C)C(=O)N[C@@H](CCCCNC(=O)CC[C@H](NC(=O)[C@@H](N)CCCCNC(=O)COCCOCCNC(=O)CCCCCCCCCCCCCCCCCCC(=O)O)C(=O)O)C(=O)N[C@@H](CCC(=O)O)C(=O)N[C@@H](CC(N)=O)C(=O)N[C@H](C(=O)N[C@@H](CCC(=O)O)C(=O)N[C@H](C(=O)N[C@@H](CC(C)C)C(=O)N[C@@H](C)C(=O)N[C@@H](CCC(N)=O)C(=O)N[C@H](C(N)=O)C(C)C)[C@@H](C)CC)[C@@H](C)O)[C@@H](C)CC)[C@@H](C)O)C(C)C)[C@@H](C)O)C(C)C [SEQ ID NO: 37, Ac-IVTS αMeL D (D-Val) PTG αMeL LQIKLEQERAEKARQQAK(γE-ϵK-(2-[2-(2-Amino-ethoxy)-ethoxy]-acetyl)-CO-(CH2)18-CO2H)ENTEILAQV-NH2] (Ac-IVTS[αMeL]D[dV]PTG[αMeL]LQIKLEQERAEKARQQAK([γGlu-εLys-AEEA-C20 diacid])ENTEILAQV-NH2)

Molecular target: T2, human corticotropin-releasing hormone …
Experiment: cell-based or functional assay
Details: not given

hCRHR1 cAMP EC50 [µM]	Molecule
> 10	B1
3.7	B2
3.7	B3
2.3	B4
> 10	B5
> 10	B6
